Experimental data reported in US20210260070A1, “LYSIN CF-301 RESENSITIZES METHICILLIN-RESISTANT STAPHYLOCOCCUS AUREUA (MRSA) TO PENICILLIN DERIVATIVES AND FIRST GENERATION CEPHALOSPORINS” (priority 2018, published 2021).
Several values for one entry are separate records, joined by “and”; a condition that tells them apart may be missing. Equal entries are not always repeated.

Key:
Format in all cases: cell-based, Staphylococcus aureus
MRSA strain ATCC 33591 = assay: Broth microdilution checkerboard assay; set-up: unit not given here; conditions: for MICfinal: * = Resensitization
Source text: (§1) In some embodiments, the present lysin polypeptides reduce the minimum inhibitory concentration (MIC) of an antibiotic. Any known method to assess MIC may be used. In some embodiments, a checkerboard assay is used to determine the effect of a lysin on antibiotic concentration. The checkerboard assay is based on a modification of the CLSI method for MIC determination by broth microdilution (See Clinical and Laboratory Standards Institute (CLSI), CLSI. 2015. Methods for Dilution Antimicrobial Susceptibility Tests for Bacteria That Grow Aerobically; Approved Standard-10th Edition. Clinical and Laboratory Standards Institute, Wayne, Pa., which is herein incorporated by reference in its entirety and Ceri et al. 1999. J. Clin. Microbiol. 37: 1771-1776, which is also herein incorporated by reference in its entirety).
(§2) Checkerboards are constructed by first preparing columns of e.g., a 96-well polypropylene microtiter plate, wherein each well has the same amount of antibiotic diluted 2-fold along the horizontal axis. […] The lysin and antibiotic dilutions are then combined, so that each column has a constant amount of antibiotic and doubling dilutions of lysin, while each row has a constant amount of lysin and doubling dilutions of antibiotic. Each well thus has a unique combination of lysin and antibiotic. Bacteria are added to the drug combinations at a given concentration. […] Summation fractional inhibitory concentrations (ΣFICs) are calculated for each drug and the minimum ΣFIC value (ΣFICmin) is used to determine the effect of the lysin/antibiotic combination.
(§3) A step-wise approach was used to evaluate PlySs2 as a resensitizing agent. First, broth microdilution checkerboard assays were used to determine fractional inhibitory concentration index (FICI) values for combinations of PlySs2 with three β-lactam antibiotics [oxacillin (OXA), nafcillin (NAF), and cefazoline (CFZ)] against nine different MRSA strains. Data from the checkerboard assays were generated to determine the interaction and potency of PlySs2 with the β-lactam antibiotics in comparison to their individual activities. This comparison is represented as the FICI value, whereby values of ≤0.5 are consistent with synergy, values of >0.5-<1 are highly-additive, values of 1-≤2 are indifferent, and values >2 are antagonistic. Representative single agent MICs are also shown, determined for each agent alone (initial) and in combinations (final). Resensitization occurs in synergistic combinations in which the β-lactam antibiotic MIC values fall below established breakpoints, e.g. a MIC value of ≤2 for β-lactam-sensitive isolates, a MIC value of ≥4 for β-lactam-resistant isolates. See Clinical and Laboratory Standards Institute (CLSI), CLSI. 2019. M100 Performance Standards for Antimicrobial Susceptibility Testing; 29th Edition. Clinical and Laboratory Standards Institute, Wayne, Pa.

MRSA strain ATCC 43300 = assay: Broth microdilution checkerboard assay; set-up: unit not given here; conditions: for MICfinal: * = Resensitization
Source text: as §1, §2, §3

MRSA strain CAIRD 426 = assay: Broth microdilution checkerboard assay; set-up: unit not given here; conditions: for MICfinal: * = Resensitization
Source text: as §1, §2, §3

MRSA strain HPV 107 = assay: Broth microdilution checkerboard assay; set-up: unit not given here; conditions: for MICfinal: * = Resensitization
Source text: as §1, §2, §3

MRSA strain JMI 1280 = assay: Broth microdilution checkerboard assay; set-up: unit not given here; conditions: for MICfinal: * = Resensitization
Source text: as §1, §2, §3

MRSA strain JMI 227 = assay: Broth microdilution checkerboard assay; set-up: unit not given here; conditions: for MICfinal: * = Resensitization
Source text: as §1, §2, §3

MRSA strain JMI4789 = assay: Broth microdilution checkerboard assay; set-up: unit not given here; conditions: for MICfinal: * = Resensitization
Source text: as §1, §2, §3

MRSA strain MW2 = assay: Broth microdilution checkerboard assay; set-up: unit not given here; conditions: for MICfinal: * = Resensitization
Source text: as §1, §2, §3

MRSA strain NRS 11 = assay: Broth microdilution checkerboard assay; set-up: unit not given here; conditions: for MICfinal: * = Resensitization
Source text: as §1, §2, §3

[1] = system: MRSA isolates from valvular vegetations; assay: MIC values of MRSA isolates recovered from valvular vegetations after PlySs2 treatment (ex vivo)
Experimental: (§4) An ex vivo analysis was performed on tissue samples recovered after PlySs2 treatment in a standard rabbit model of MRSA infective endocarditis (IE), as disclosed in Xiong et al., Comparative efficacy of telavancin and daptomycin in experimental endocarditis due to multi-clonotype MRSA strains, J. ANTIMIC. CHEMO. (2016); 71(1):2890-94. The standard rabbit IE model was used to confirm the impact of PlySs2 treatment on oxacillin MICs. Four days after treatment with a single-dose of PlySs2 (0.18 mg/kg to 1.4 mg/kg) in the IE model, isolates were recovered from valvular vegetations and plated on TSAB (non-selective condition, Tables 3 and 4) and TSAB supplemented with PlySs2 over a range of concentrations (selective conditions, Tables 5 and 6). MIC values of the MRSA isolates were determined for both PlySs2 and oxacillin. Tables 3 and 4 below show the MICs calculated for PlySs2 and oxacillin, respectively, for valvular vegetations subject to the non-selective conditions.

S. aureus strain MW2 = assay: MIC of parental strain
Experimental: as §4

[2] = system: MRSA MW2 mutant and control isolates from valvular vegetations; assay: MICs of mutant and control isolates from the rabbit IE study
Source text: The PlySs2 and oxacillin MICs of each mutant and control strain are shown below in Tables 7 and 8, wherein + indicates the presence of the mutation and—indicates an absence of the mutation.

[3] = in combination PlySs2 + CFZ (final)
[4] = in combination PlySs2 + NAF (final)
[5] = in combination PlySs2 + OXA (final)
[6] = non-selective, PlySs2 0.18 mg/kg (n = 24)
[7] = non-selective, PlySs2 0.35 mg/kg (n = 24)
[8] = non-selective, PlySs2 0.7 mg/kg (n = 24)
[9] = non-selective, PlySs2 1.4 mg/kg (n = 24)
[10] = selective conditions, PlySs2 0.18 mg/kg (n = 24)
[11] = selective conditions, PlySs2 0.35 mg/kg (n = 24)
[12] = selective conditions, PlySs2 0.7 mg/kg (n = 24)
[13] = selective conditions, PlySs2 1.4 mg/kg (n = 24)

B1: PlySs2: bacteriophage lysin derived from Streptococcus suis, amino acid sequence SEQ ID NO: 1 (245 residues) (protein, listed as Streptococcus suis)
chain: MTTVNEALNNVRAQVGSGVSVGNGECYALASWYERMISPDATVGLGAGVGWVSGAIGDTISAKNIGSSYNWQANGWTVSTSGPFKAGQIVTLGATPGNPYGHVVIVEAVDGDRLTILEQNYGGKRYPVRNYYSAASYRQQVVHYITPPGTVAQSAPNLAGSRSYRETGTMTVTVDALNVRRAPNTSGEIVAVYKRGESFDYDTVIIDVNGYVWVSYIGGSGKRNYVATGATKDGKRFGNAWGTFK
MICinitial (MRSA strain ATCC 33591; each agent alone (initial)): 1 | MICfinal (MRSA strain ATCC 33591; [3]): 0.25 | MICfinal (MRSA strain ATCC 33591; [4]): 1.125 | MICfinal (MRSA strain ATCC 33591; [5]): 0.25 | MICinitial (MRSA strain ATCC 43300; each agent alone (initial)): 1 | MICfinal (MRSA strain ATCC 43300; [3]): 0.125 | MICfinal (MRSA strain ATCC 43300; [4]): 0.125 | MICfinal (MRSA strain ATCC 43300; [5]): 0.25 | MICinitial (MRSA strain CAIRD 426; each agent alone (initial)): 1 | MICfinal (MRSA strain CAIRD 426; [3]): 0.25 | MICfinal (MRSA strain CAIRD 426; [4]): 0.25 | MICfinal (MRSA strain CAIRD 426; [5]): 0.25 | MICinitial (MRSA strain HPV 107; each agent alone (initial)): 1 | MICfinal (MRSA strain HPV 107; [3]): 0.125 | MICfinal (MRSA strain HPV 107; [4]): 0.25 | MICfinal (MRSA strain HPV 107; [5]): 0.25 | MICinitial (MRSA strain JMI 1280; each agent alone (initial)): 1 | MICfinal (MRSA strain JMI 1280; [3]): 0.25 | MICfinal (MRSA strain JMI 1280; [4]): 0.25 | MICfinal (MRSA strain JMI 1280; [5]): 0.25 | MICinitial (MRSA strain JMI 227; each agent alone (initial)): 1 | MICfinal (MRSA strain JMI 227; [3]): 0.25 | MICfinal (MRSA strain JMI 227; [4]): 0.25 | MICfinal (MRSA strain JMI 227; [5]): 0.25 | MICinitial (MRSA strain JMI4789; each agent alone (initial)): 1 | MICfinal (MRSA strain JMI4789; [3]): 0.125 | MICfinal (MRSA strain JMI4789; [4]): 0.125 | MICfinal (MRSA strain JMI4789; [5]): 0.25 | MICinitial (MRSA strain MW2; each agent alone (initial)): 1 and 2 | MICfinal (MRSA strain MW2; [3]): 0.125 | MICfinal (MRSA strain MW2; [4]): 0.5 | MICfinal (MRSA strain MW2; [5]): 0.25 | MICinitial (MRSA strain NRS 11; each agent alone (initial)): 1 | MICfinal (MRSA strain NRS 11; [3]): 0.25 | MICfinal (MRSA strain NRS 11; [4]): 0.25 | MICfinal (MRSA strain NRS 11; [5]): 0.25 | PlySs2 MIC of recovered isolates ([1]; non-selective conditions, remained stable): 1 µg/mL | Number of isolates with Oxacillin MIC 32 μg/mL [1, 6]: 16 | Number of isolates with PlySs2 MIC 1 μg/mL [1, 6]: 16 | Number of isolates with Oxacillin MIC 32 μg/mL [1, 7]: 18 | Number of isolates with Oxacillin MIC ≤2 μg/mL [1, 7]: 6 | Number of isolates with PlySs2 MIC 0.5 μg/mL [1, 7]: 3 | Number of isolates with PlySs2 MIC 1 μg/mL [1, 7]: 21 | Number of isolates with Oxacillin MIC 16 μg/mL [1, 8]: 1 | Number of isolates with Oxacillin MIC 32 μg/mL [1, 8]: 23 | Number of isolates with PlySs2 MIC 0.5 μg/mL [1, 8]: 1 | Number of isolates with PlySs2 MIC 1 μg/mL [1, 8]: 23 | Number of isolates with Oxacillin MIC 32 μg/mL [1, 9]: 17 | Number of isolates with Oxacillin MIC ≤2 μg/mL [1, 9]: 7 | Number of isolates with PlySs2 MIC 1 μg/mL ([1]; non-selective, rabbits given PlySs2 1.4 mg/kg (n = 24)): 24 | PlySs2 MIC increase ([1]; selective conditions, isolates after PlySs2 treatment): ≤ 2 fold | Number of isolates with Oxacillin MIC 32 μg/mL [1, 10]: 16 | Number of isolates with PlySs2 MIC 1 μg/mL [1, 10]: 14 | Number of isolates with PlySs2 MIC 2 μg/mL [1, 10]: 2 | Number of isolates with Oxacillin MIC 32 μg/mL [1, 11]: 17 | Number of isolates with Oxacillin MIC <2 μg/mL [1, 11]: 7 | Number of isolates with PlySs2 MIC 1 μg/mL [1, 11]: 22 | Number of isolates with PlySs2 MIC 2 μg/mL [1, 11]: 2 | Number of isolates with Oxacillin MIC 32 μg/mL [1, 12]: 21 | Number of isolates with PlySs2 MIC 1 μg/mL [1, 12]: 19 | Number of isolates with PlySs2 MIC 2 μg/mL [1, 12]: 3 | Number of isolates with Oxacillin MIC between <2 and 32 μg/mL (4, 8 or 16) ([1]; selective conditions, PlySs2 0.7 mg/kg (n = 24), column not resolvable): 3 | Number of isolates with Oxacillin MIC 32 μg/mL [1, 13]: 21 | Number of isolates with Oxacillin MIC <2 μg/mL [1, 13]: 3 | Number of isolates with PlySs2 MIC 1 μg/mL [1, 13]: 20 | Number of isolates with PlySs2 MIC 2 μg/mL [1, 13]: 4 | PlySs2 MIC of recovered isolates ([1]; selective conditions, remained largely stable): 1 µg/mL | MIC of S. aureus strain MW2 (S. aureus strain MW2): 1 µg/mL | MIC ([2]; Control #1 isolate): (1 μg/mL)/ | MIC ([2]; Control #2 isolate): (2 μg/mL)/ | MIC ([2]; Control #3 isolate): (2 μg/mL) | MIC ([2]; Mutant #1 (hlgCB near, mprF L291I, rlmH K159R, ΔSCCmec)): (2 μg/mL) | MIC ([2]; Mutant #2 (hlgCB near, graR I158S, rlmH K159R, ΔSCCmec)): (1 μg/mL)
